Laboratory results from patent publication US20050287136A1 (Amgen, published 2005).

B1: 4.10.2 (antibody, human IgG2, V domains shown)
VH: QVQLVESGGGVVQPGRSLRLSCVASGFIFSSHGIHWVRQAPGKGLEWVAVIWYDGRNKDYADSVKGRFTISRDNSKNTLYLQMNSLRAEDTAVYYCARVAPLGPLDYWGQGTLVTVSS
VL: EFVLTQSPGTLSLSPGERATLSCRASQSISSNFLAWYQQKPGQAPRLLIYRPSSRATGIPDSFSGSGSGTDFTLTISRLEPEDFALYYCQQYGTSPFTFGPGTKVDIK
modifications: chain 1 pos 1: pyroglutamate from Gln (FIG. 9: NH2-Blocked, pQ), written Q
notes: Fully human IgG2 kappa; VH DP-50, VK A27; also called CT4.10.2
B2: 11.2.1 (antibody, human IgG2, kappa, V domains shown)
VH: QVQLVESGGGVVQPGRSLRLSCAASGFTFSSYGMHWVRQAPGKGLEWVAVIWYDGSNKYYADSVKGRFTISRDNSKNTLYLQMNSLRAEDTAVYYCARDPRGATLYYYYYGMDVWGQGTTVTVSS
VL: DIQMTQSPSSLSASVGDRVTITCRASQSINSYLDWYQQKPGKAPKLLIYAASSLQSGVPSRFSGSGSGTDFTLTISSLQPEDFATYYCQQYYSTPFTFGPGTKVEIKR
notes: also called CT11.2.1
B3: 3.1.1 (antibody, human IgG2, V domains shown)
VH: QVQLVESGGGVVQPGRSLRLSCAASGFTFSSYGMHWVRQAPGKGLEWVAVIWYDGSNKYYADSVKGRFTISRDNSKNTLYLQMNSLRAEDTAVYYCARGARIITPCMDVWGQGTTVTVSS
VL: DIQMTQSPSSLSASVGDRVTITCRASQSINTYLIWYQQKPGKAPNFLISATSILQSGVPSRFRGSGSGTNFTLTINSLHPEDFATYYCQQSYSTPFTFGPGTKVDIK
modifications: chain 1 pos 1: pyroglutamate from Gln (FIG. 9: NH2-Blocked, pQ), written Q
notes: Fully human IgG2 kappa; VH DP-50, VK 012; also called CT3.1.1

Legend:
[1] = target: T1, CTLA-4-IgG1 fusion protein (OM-CTLA4-IgG1, made in-house) (human); experiment: BIAcore, immobilised CTLA-4-Ig fusion, 878.7 RU
T1 construct: covalent dimer through cysteine 120 of CTLA-4; The marks for signal peptide (underline) and CTLA4 domain are lost in the text; also called CTLA-4-Ig fusion protein; human CTLA4-IgG
T1 sequence (chain, as listed by the source): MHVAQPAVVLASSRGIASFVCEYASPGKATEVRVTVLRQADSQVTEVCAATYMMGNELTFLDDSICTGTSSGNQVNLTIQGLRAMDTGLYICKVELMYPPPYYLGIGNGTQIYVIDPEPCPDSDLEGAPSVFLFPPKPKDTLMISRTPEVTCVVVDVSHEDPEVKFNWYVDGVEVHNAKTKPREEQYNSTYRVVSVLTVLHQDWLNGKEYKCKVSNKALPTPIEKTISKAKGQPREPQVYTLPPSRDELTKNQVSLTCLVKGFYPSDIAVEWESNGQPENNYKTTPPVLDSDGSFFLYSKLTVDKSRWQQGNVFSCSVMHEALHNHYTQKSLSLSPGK

[2] = target: T1, CTLA-4-IgG1 fusion protein …; experiment: BIAcore, immobilised CTLA-4-Ig fusion, 504.5 RU
[3] = target: T2, CTLA-4-Ig(G4) (Repligen, Inc.) (UniProt P16410 37-161, limits assumed); experiment: competition ELISA, antibody with CTLA-4-Ig(G4) 0.3 nM on coated B7.1-Ig(G1)
T2 sequence (P16410 37-161 limits assumed): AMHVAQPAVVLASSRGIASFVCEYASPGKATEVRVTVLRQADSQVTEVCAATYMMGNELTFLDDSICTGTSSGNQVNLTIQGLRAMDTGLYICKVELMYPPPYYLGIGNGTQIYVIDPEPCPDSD

[4] = target: T1, CTLA-4-IgG1 fusion protein …; experiment: BIAcore, immobilised CTLA-4-Ig fusion, 457.2 RU
[5] = target: T2, CTLA-4-Ig(G4) (Repligen, Inc.); experiment: competition ELISA, antibody with CTLA-4-Ig(G4) 0.3 nM on coated B7.2-Ig(G1)
[6] = target: T1, CTLA-4-IgG1 fusion protein …; experiment: selectivity ELISA, coated CTLA-4/Ig against B7.2/Ig
[7] = target: T2, CTLA-4-Ig(G4) (Repligen, Inc.); experiment: competition ELISA (separate experiment), antibody with CTLA-4-Ig(G4) 0.3 nM on coated B7.1-Ig(G1)
[8] = target: T2, CTLA-4-Ig(G4) (Repligen, Inc.); experiment: competition ELISA (separate experiment), antibody with CTLA-4-Ig(G4) 0.3 nM on coated B7.2-Ig(G1)
[9] = target: T1, CTLA-4-IgG1 fusion protein …; experiment: selectivity ELISA, coated CTLA-4/Ig against CD28/Ig
[10] = target: T1, CTLA-4-IgG1 fusion protein …; experiment: selectivity ELISA, coated CTLA-4/Ig against hIgG
[11] = target: T1, CTLA-4-IgG1 fusion protein …; experiment: selectivity ELISA, coated CTLA-4/Ig against CD44/Ig, antibody 1 ug/ml
[12] = target: T1, CTLA-4-IgG1 fusion protein …; experiment: BIAcore, immobilised CTLA-4-Ig fusion, 397.8 RU
[13] = target: T1, CTLA-4-IgG1 fusion protein …; experiment: selectivity ELISA, coated CTLA-4/Ig against CD28/Ig, antibody 1 ug/ml
[14] = target: T1, CTLA-4-IgG1 fusion protein …; experiment: selectivity ELISA, coated CTLA-4/Ig against B7.2/Ig, antibody 1 ug/ml

| Binder | Ka [1] [M⁻¹] | Kd [1] [nM] | koff [1] [s⁻¹] | kon [1] [M⁻¹ s⁻¹] | Ka [2] [M⁻¹] | Kd [2] [nM] | koff [2] [s⁻¹] | kon [2] [M⁻¹ s⁻¹] | IC50 [3] [nM] | Ka [4] [M⁻¹] | Kd [4] [nM] | koff [4] [s⁻¹] | kon [4] [M⁻¹ s⁻¹] | IC50 [5] [nM] | also measured |
| --- | --- | --- | --- | --- | --- | --- | --- | --- | --- | --- | --- | --- | --- | --- | --- |
| B1 | 3.9e+09 | 0.254 | 0.000253 | 1e+06 | 2.2e+09 | 0.455 | 0.00043 | 940000 | 3.39 | 1.4e+09 | 0.721 | 0.000505 | 700000 | 1.5 |  |
| B2 |  |  |  |  |  |  |  |  |  |  |  |  |  |  | selectivity ratio CTLA4/B7.2 [6]: > 500 :1; IC50 [7]: 0.81 nM; IC50 [8]: 0.56 nM; selectivity ratio CTLA4/CD28 [9]: > 500 :1; selectivity ratio CTLA4/hIgG [10]: > 500 :1 |
| B3 | 1.07e+10 | 0.093 | 9.6e-05 | 1.04e+06 | 5.5e+09 | 0.182 | 0.000172 | 950000 | 0.63 | 4.4e+09 | 0.227 | 0.000165 | 730000 | 0.45 | selectivity ratio CTLA4/CD44 [11]: > 500 :1; Ka [12]: 4.4e+09 M⁻¹; Kd [12]: 0.228 nM; koff [12]: 0.000207 s⁻¹; kon [12]: 910000 M⁻¹ s⁻¹; selectivity ratio CTLA4/CD28 [13]: > 500 :1; selectivity ratio CTLA4/B7.2 [14]: > 500 :1 |
